Test results taken from patent US20250026813A1 (published 2025).

B1: YANG-1205 (antibody, V domains shown)
VH: QVQLVQSGAEVKKPGASVKVSCKASGYTFTSYCIHWVRQAPGQGLEWMGIINPSGGGTIFAQKFQGRVTMTRDTSTTTVYMELGSLRSDDTALYYCARGWSYDFWSGPDYWGQGTLVSVSS
VL: DIVMTQTPLSLSVTPGQPASISCKSSQSLLHSDGKTYLYWYLQKPGQPPQLLIYEVSNRFSGVPDRFSGSGSGTDFTLKISRVGAEDVGIYYCMHSIKLPPTFGQGTKVEIK
B2: YANG-1207 (antibody, V domains shown)
VH: QVQLVESGGGVVQPGRSLRLSCAASGFTFSSYGMHWVRQAPGKGLEWVSVIWYDGTNKYYADSVKGRFTISRDNSKNTLYLQMNSLRAEDTAVYYCAREGVEFTGYFDYWGQGTLVTVSS
VL: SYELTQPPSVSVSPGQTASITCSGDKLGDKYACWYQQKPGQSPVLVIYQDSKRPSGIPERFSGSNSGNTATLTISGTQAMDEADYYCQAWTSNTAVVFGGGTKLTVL
B3: YANG-1206 (antibody, V domains shown)
VH: QVHLVESGGGMVQPGRSLRLSCAASGFTFSIYAMHWVRQAPGKGLEWVAVISYDGSNKYYADSVKGRFTISRDNSKNTLYLQMNSLRAEDTAVYYCAKVYGGSYWGGFDYWGQGTLVTVSS
VL: QSVLTQPPSVSGAPGQRVTISCTGTSSNIGSIYDVHWYQQLPGTAPKLLIYGNSNRPSGVPDRFSGSKSGTSASLAITGLQAEDEADYYCQSYDTSLSGSWVFGGGTKLNVL
B4: YANG-2205 (antibody, V domains shown)
VH: QIQLVQSGAEVKKPGASVKFSCKTSGYTFTSYYMVWVRQAPGQGLEWMGIIKPSGGNTIYAQKFQGRVTMTRDTSTNTVYMDLSSLRSEDTAVYYCARTGDRAFDVWGHGTMITVSS
VL: QSVLTQPPSVSAAPGQKVTISCSGSSSNIGNNFVSWYQQFPGTAPKLLIYDNNKRPSGIPDRFSGSKSGTSATLGITGLQTGDEADYYCGTWDSSLGAGVFGGGTKLTVL
B5: YANG-2208 (antibody, V domains shown)
VH: QIQLVQSGAEVRKPGASVRFSCKTSGYIFTNYYMVWVRQAPGQGLEWMGIIKPSGGNTIYAQKFQGRVTMTRDTSTNTVYMDLNNLRSEDTAVYFCARTGDRAFDVWGQGTMVTVSS
VL: QSVLTQPPSMSAAPGQKVTISCSGNSSNIGNNFVSWYRQFPGTAPKLLIYDNNKRPSGIPDRFSGSKSGTSATLGITGLQTGDEADYYCGTWDSSLSAGVFGGGTKLTVL
B6: YANG-2206 (antibody, V domains shown)
VH: QIQLVQSGAEVKKPGASVKLSCKTSGYTFTSYYMVWVRQAPGQGLEWMGIIKPSGGNTIFAQKFQGRVTMTRDTSTNTVYMDLNSLRSEDTAVYYCARTGDRAFDVWGHGTMVTVSS
VL: QSVLTQPPSVSAAPGQKVTISCSGSSSNIGNNYVSWYQQFPGTAPKLLIYDNNKRPSGIPDRFSGSKSGTSATLGITGLQTGDEADYYCGTWDSSLGAGVFGGGTKVTVL
B7: YANG-2207 (antibody, V domains shown)
VH: QMQLVQSGAEVKKPGASVKISCKTSGYTFTNYYMVWVRQAPGQGLEWMGIIKPSGGNTIYAQKFQGRVTMTRDTSTNTVYLDLSSLRSEDTAVYYCARTGNRAFDVWGHGTMVTVSS
VL: QSVLTQPPSVSAAPGQKVTISCSGSSSNIGNNFVSWYQQFPGTAPKLLIYDNNKRPSGIPDRFSGSKSGTSATLGITGLQTGDEADYYCGTWDSSLGAGVFGGGTKLTVL
B8: IMPI-068 (antibody, V domains shown)
VH: QVQLVESGGDVVQPGRSLRLSCAASGFTFSRYGMHWVRQAPGKGLEWVAVISYDGSDKYYADSVKGRFTISRDNSKNTLYLQMNSLRAEDTAVYYCAKQLPLYYYYYGMDVWGQGTTVTVSS
VL: AIQLTQSPSSLSASVGDRVTITCRASQGISSALAWYQQKPGKAPNLLIYDASSLESGVPSRFSGSGSGTDFTLTISSLQPEDFATYYCQQFNIYPHTFGPGTKVDIK
B9: IMPI-004 (antibody, V domains shown)
VH: QVQLVESGGGVVQPGRSLRLSCAASGFTFSSYGMHWVRQAPGKGLEWVAVIWYDGGNKYYADSVKGRFTISRDNSKNTLYLQMNSLRAEDTAVYYCARVNVLMGYGMDVWGQGTTVTVSS
VL: EIVLTQSPGTLSLSPGDKATLSCRASQSIISSFLAWYQQKPGQAPRLLIYGASSRATGIPDRFSGSGSGTDFTLTISRLEPEDFAVYYCQQYGSSLTFGGGTKVEIK
B10: IMPI-013 (antibody, V domains shown)
VH: EVQLVESGGGLVQPGRSLRLSCAASGFTFDDYAMHWVRQTPGKGLEWVSGISWNSGSIGYADSVKGRFTISRDNAKNSLYLQMNSLRAEDTALYYCTKDLGLGIGFYYGLDVWGQGTTVTVSS
VL: AIQMTQSPSSLSTSVGDRVTITCRASQGIRNDLGWYQLKPGKAPKLLIYDASTLQSGVPSRFSGSGSGTDFTLTISSLEPEDLATYYCLHHYTYPWTFGHGTKVELK
B11: IMPI-002 (antibody, V domains shown)
VH: EVQLVESGGGLIQPGGSLRLSCAASGVTVSSNYMSWVRQAPGKGLEGVSVIYSGGSTYYADSVKGRFTISRDNSKNTLYLQMNSLRAEDTAVYYCARDTVVYGMDVWGQGTTVTVSS
VL: DIQLTQSPSFLSASVGDRVTITCWASQGISSYLAWYQQKPGKAPKLLIYAASTLQSGVPSRFSGSGSGTEFTLTISSLQPEDFATYYCQQLNSYPLTFGGGTKVEIK
B12: IMPI-052 (antibody, V domains shown)
VH: EVQLVESGGGLIQPGGSLRLSCAASGVTVSSNYMNWVRQAPGKGLEGVSVIYSGGTTYYADSVKGRFTISRDNSKNTLYLQMNSLRAEDTAVYYCARDTVVYGMDVWGQGTTVTVSS
VL: DIQLTQSPSFLSASVGDRVTITCWASQGISSYLAWYQQKPGKAPKLLIYTASTLQSGVPSRFSGSGSGTEFTLTISSLQPEDFATYYCQQLNSYPLTFGGGTKVEIK
B13: IMPI-028 (antibody, V domains shown)
VH: EVQLVESGGGLIQPGGSLRLSCAASGFTVSSNYMSWVRQAPGKGLEWVSVIYSGGSTYYADSVKGRFTISRDNSKNTLYLQMNSLRAEDTAVYYCARDYGDLYFDYWGQGTLVTVSS
VL: EIVLTQSPGTLSLSPGERATLSCRASQSISSYLAWYQQKPGQAPRLLIYGASSRATGIPDKFSGSGSGTDFTLTISRLEPEDFAVYYCQQYGSSPRTFGQGTKVEIK
B14: IMPI-056 (antibody, V domains shown)
VH: EVQLVESGGGLIQPGGSLRLSCAASGLTVSSNYMNWVRQAPGKKLEWVSVIYSGGSTFYADSVRGRFTISRDNSKNTLFLQMNSLRAEDSAVYYCARDLGPYGVDVWGQGTTVTVSS
VL: DIQLTQSPSFLSASVGDRVTITCWASQGISSYLAWYQQKPGKAPKLLIYAASTLQSGVPSRFSGSGSGTEFTLTISSLQPEDFATYYCQQLNSYPLTFGQGTRLEIK
B15: IMPI-067 (antibody, V domains shown)
VH: QVQLVESGGGVVQPGTSLRLSCAASGFTFNSFGMHWVRQAPGKGLEWVAVISYDGSSKYYADSVKGRFTISRDNSKNTLYLQMNSLRAEDTAVYYCAKDEGDYDDYYYGMDVWGQGTTVTVSS
VL: EIVLTQSPGSLSLSPGERATLSCRASQSLSSRYLAWYHQKPGQAPRLLIYGASSRATGIPDRFSGSGSGTDFTLTISGLEPEDFAVYYCQQYGNSITFGGGTKVEIK
B16: IMPI-038 (antibody, V domains shown)
VH: QVQLVESGGGVVQPGRSLRLSCAASGFTFSSYGMHWVRQAPGKGLEWVAVISYDGSDKYYADSVKGRFTISRDNSKNTLYLQMNSLRAEDTAVYYCAKTVAGYYYYYYGMDVWGQGTTVTVSS
VL: DIQMTQSPSSVSASVGDRVTVTCRASQDISSWLAWFQQKPGKAPKFLIYDASNLENGVPSRFSGSGSGTDFTLTISSLQPEDFATYYCQQAKSFPWTFGQGTKVEIN

The binders below were run against SARS-CoV-2 spike protein bearing furin mutation and truncation in retention sequence, on pseudoviral particles (SARS-CoV-2, UniProt P0DTC2 14-1255) (assay: cell-based or functional assay).

Row | Binder | PV neutralization % (Ab 1 ug/mL)
1 | B1 | 40.2%
2 | B2 | 39.9%
3 | B3 | 45.9%

The binders below were run against SARS-CoV-2 spike protein bearing furin mutation and truncation in retention sequence, presented in t (SARS-CoV-2, UniProt P0DTC2 14-1273) (assay: cell-based or functional assay).

Row | Binder | PV neutralisation IC50 | PV neutralization % (Ab 1 ug/mL)
4 | B4 | 3.35 nM | 47.5%
5 | B5 | 4.68 nM | 38.2%
6 | B6 | 3.96 nM | 42%
7 | B7 | 2.59 nM | 57.8%

These binders were tested against full-length stabilised spike trimer protein of SARS-CoV-2 virus (in-house, soluble ECD with trimeris (SARS-CoV-2, UniProt P0DTC2 14-1208; P10104 458-484) (assay: not given).

Row | Binder | HTRF deltaF
8 | B8 | 1600 deltaF
9 | B9 | 952 deltaF
10 | B10 | 1420 deltaF
11 | B11 | 913 deltaF
12 | B12 | 1130 deltaF
13 | B13 | 480 deltaF
14 | B14 | 1630 deltaF
15 | B15 | 963 deltaF
16 | B16 | 1310 deltaF
